# Measured values reported in patent publication US6489293.
# Target: T1, erythropoietin receptor on intact mouse spleen cells (mouse) (UniProt P14753)
# T1 sequence (looked up): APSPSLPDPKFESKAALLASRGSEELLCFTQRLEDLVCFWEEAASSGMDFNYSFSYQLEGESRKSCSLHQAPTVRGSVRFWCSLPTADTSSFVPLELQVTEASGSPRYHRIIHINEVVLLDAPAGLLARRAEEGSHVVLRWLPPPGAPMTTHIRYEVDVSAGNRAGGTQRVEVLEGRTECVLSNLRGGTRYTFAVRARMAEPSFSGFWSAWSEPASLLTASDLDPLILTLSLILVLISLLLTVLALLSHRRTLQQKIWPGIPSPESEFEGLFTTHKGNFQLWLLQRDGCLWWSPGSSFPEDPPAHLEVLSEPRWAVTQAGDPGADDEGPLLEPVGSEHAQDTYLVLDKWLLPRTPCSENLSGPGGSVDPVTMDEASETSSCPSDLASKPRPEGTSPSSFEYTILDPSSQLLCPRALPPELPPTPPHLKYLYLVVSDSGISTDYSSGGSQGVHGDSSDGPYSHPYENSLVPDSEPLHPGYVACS
# Experiment: cell-based or functional assay
"SPECIFIC ACTIVITY (Krystal bioassay units per microgram by RIA, percent of wildtype erythropoietin), first set of experiments","SPECIFIC ACTIVITY (Krystal bioassay units per microgram by RIA, percent of wildtype erythropoietin), second set of experiments",reduction in activity below wildtype human recombinant erythropoietin (Krystal bioassay),Substance
93.3%,,,erythropoietin mutant L102A (from UniProt P01588 28-193) (ligand)
36.9%,,,erythropoietin mutant L108A (from UniProt P01588 28-193) (ligand)
0%,0%,1000 fold,erythropoietin mutant R103A (from UniProt P01588 28-193) (ligand)
0%,0%,1000 fold,erythropoietin mutant R103D (from UniProt P01588 28-193) (ligand)
0%,0%,1000 fold,erythropoietin mutant R103E (from UniProt P01588 28-193) (ligand)
0%,,,erythropoietin mutant R103H (from UniProt P01588 28-193) (ligand)
10.2%,25%,,erythropoietin mutant R103K (from UniProt P01588 28-193) (ligand)
0%,0.4%,,erythropoietin mutant R103L (from UniProt P01588 28-193) (ligand)
0%,0%,1000 fold,erythropoietin mutant R103N (from UniProt P01588 28-193) (ligand)
0%,0%,1000 fold,erythropoietin mutant R103Q (from UniProt P01588 28-193) (ligand)
